Experimental data from patent US20090280138A1 (OXFORD BIOMEDICA UK, published 2009).

How the values were obtained:
Assay in all cases: iTopia peptide binding assay
[1] = target: T1, MHC class I allele A*0101 (bound via biotin to streptavidin-coated plate)
T1 construct: iTopia MHC class I monomer on the plate; placeholder peptide and b2M removed, then reconstituted with test peptide and fresh b2M; also called A1; HLA A1
Method: (§1) The 9 mers were tested for Peptide Binding, Off Rate and Affinity using iTopia Epitope Discovery System in accordance with the manufacturer's instructions. Briefly, 96 well microtitre plates coated with MHC molecules representing different MHC alleles are used to identify candidate peptides. […] Determinations are performed in duplicate using an ELISA plate reader and included allele specific positive controls.
(§2) i) Peptide Binding—This assay measures the ability of individual peptides to bind to the MHC molecules under standardized optimal binding conditions. The assay is performed for all the test peptides across the selected MHC alleles. The test peptides identified as “binders” are characterized further in terms of affinity and dissociation experiments.

[2] = target: T2, MHC class I allele A*0201 (bound via biotin to streptavidin-coated plate)
T2 construct: iTopia MHC class I monomer on the plate; placeholder peptide and b2M removed, then reconstituted with test peptide and fresh b2M; also called A2; HLA A2
Method: as §1, §2

[3] = target: T3, MHC class I allele A*0301 (bound via biotin to streptavidin-coated plate)
T3 construct: iTopia MHC class I monomer on the plate; placeholder peptide and b2M removed, then reconstituted with test peptide and fresh b2M; also called A3; HLA A3
Method: as §1, §2

[4] = target: T4, MHC class I allele B*0702 (bound via biotin to streptavidin-coated plate)
T4 construct: iTopia MHC class I monomer on the plate; placeholder peptide and b2M removed, then reconstituted with test peptide and fresh b2M; also called B7; HLA B7
Method: as §1, §2

Row | Binder | % of positive control peptide binding [1] | % of positive control peptide binding [2] | % of positive control peptide binding [3] | % of positive control peptide binding [4]
1 | AFEHLPSLR (also called Peptide No 69) [5T4 9 mer peptide 69 AFEHLPSLR] | 1% | 11% | 11% | 0%
2 | RLDEVRAGA (also called Peptide No 65) [5T4 9 mer peptide 65 RLDEVRAGA] | 4% | 69% | 17% | 32%
3 | PLADLSPFA (also called Peptide No 77) [5T4 9 mer peptide 77 PLADLSPFA] | 1% | 67% | 0% | 10%
4 | PAGAFARRP (also called Peptide No 54) [5T4 9 mer peptide 54 PAGAFARRP] | 2% | 4% | 3% | 7%
5 | GAFARRPPL (also called Peptide No 55) [5T4 9 mer peptide 55 GAFARRPPL] | 0% | 41% | 3% | 91%
6 | PPEDERQNR (also called Peptide No 93) [5T4 9 mer peptide 93 PPEDERQNR] | 0% | 2% | 0% | 0%
7 | PPLAELAAL (also called Peptide No 58) [5T4 9 mer peptide 58 PPLAELAAL] | 6% | 19% | 4% | 33%
8 | PAAGDGRLR (also called Peptide No 5) [5T4 9 mer peptide 5 PAAGDGRLR] | 4% | 5% | 4% | 5%
9 | IVPPEDERQ (also called Peptide No 92) [5T4 9 mer peptide 92 IVPPEDERQ] | 6% | 12% | 3% | 3%
10 | RQLDLSHNP (also called Peptide No 73) [5T4 9 mer peptide 73 RQLDLSHNP] | 2% | 8% | 2% | 4%
11 | AFSGSNASV (also called Peptide No 81) [5T4 9 mer peptide 81 AFSGSNASV] | 2% | 55% | 2% | 14%
12 | LPSLRQLDL (also called Peptide No 71) [5T4 9 mer peptide 71 LPSLRQLDL] | 0% | 27% | 0% | 82%
13 | LPSLRHLDL (also called Peptide No 117) [5T4 9 mer peptide 117 LPSLRHLDL] | 0% | 16% | 1% | 96%
14 | LAELAALNL (also called Peptide No 59) [5T4 9 mer peptide 59 LAELAALNL] | 15% | 63% | 3% | 16%
15 | ILNHIVPPE (also called Peptide No 90) [5T4 9 mer peptide 90 ILNHIVPPE] | 5% | 63% | 4% | 7%
16 | DEVRAGAFE (also called Peptide No 66) [5T4 9 mer peptide 66 DEVRAGAFE] | 6% | 9% | 7% | 12%
17 | VPTDLPAYV (also called Peptide No 43) [5T4 9 mer peptide 43 VPTDLPAYV] | 33% | 29% | 0% | 11%
18 | EDERQNRSF (also called Peptide No 94) [5T4 9 mer peptide 94 EDERQNRSF] | 0% | 2% | 4% | 4%

Row | Binder | % of positive control peptide binding [1] | % of positive control peptide binding [2] | % of positive control peptide binding [3] | % of positive control peptide binding [4]
19 | SGSNASVSA (also called Peptide No 82) [5T4 9 mer peptide 82 SGSNASVSA] | 5% | 15% | 3% | 11%
20 | NHIVPPEDE (also called Peptide No 91) [5T4 9 mer peptide 91 NHIVPPEDE] | 6% | 11% | 3% | 5%
21 | AGAFEHLPS (also called Peptide No 68) [5T4 9 mer peptide 68 AGAFEHLPS] | 6% | 10% | 3% | 7%
22 | TDLPAYVRN (also called Peptide No 44) [5T4 9 mer peptide 44 TDLPAYVRN] | 7% | 3% | 1% | 2%
23 | AALNLSGSR (also called Peptide No 61) [5T4 9 mer peptide 61 AALNLSGSR] | 3% | 6% | 13% | 3%
24 | PFAFSGSNA (also called Peptide No 80) [5T4 9 mer peptide 80 PFAFSGSNA] | 0% | 13% | 3% | 7%
25 | FLTGNQLAV (also called Peptide No 49) [5T4 9 mer peptide 49 FLTGNQLAV] | 4% | 90% | 3% | 6%
26 | LNLSGSRLD (also called Peptide No 62) [5T4 9 mer peptide 62 LNLSGSRLD] | 2% | 7% | 2% | 7%
27 | VRNLFLTGN (also called Peptide No 47) [5T4 9 mer peptide 47 VRNLFLTGN] | 0% | 5% | 0% | 3%
28 | VSAPSPLVE (also called Peptide No 85) [5T4 9 mer peptide 85 VSAPSPLVE] | 3% | 13% | 7% | 3%
29 | LPAYVRNLF (also called Peptide No 45) [5T4 9 mer peptide 45 LPAYVRNLF] | 7% | 14% | 2% | 90%
30 | NRNLTEVPT (also called Peptide No 40) [5T4 9 mer peptide 40 NRNLTEVPT] | 1% | 6% | 0% | 5%
31 | RRPPLAELA (also called Peptide No 57) [5T4 9 mer peptide 57 RRPPLAELA] | 2% | 11% | 2% | 9%
32 | TEVPTDLPA (also called Peptide No 42) [5T4 9 mer peptide 42 TEVPTDLPA] | 3% | 7% | 0% | 0%
33 | HNPLADLSP (also called Peptide No 76) [5T4 9 mer peptide 76 HNPLADLSP] | 5% | 7% | 3% | 5%
34 | VKCVNRNLT (also called Peptide No 38) [5T4 9 mer peptide 38 VKCVNRNLT] | 6% | 3% | 0% | 2%
35 | SLRQLDLSH (also called Peptide No 72) [5T4 9 mer peptide 72 SLRQLDLSH] | 0% | 6% | 11% | 13%
36 | CSRGPAAGD (also called Peptide No 3) [5T4 9 mer peptide 3 CSRGPAAGD] | 0% | 3% | 5% | 3%
